Measured values as given in US20130251707A1 (BALIOPHARM, published 2013).
Changes are numbered by the printed parent chain. Names may count otherwise. Values belong to the binder of their own block, whether it stands above or below them.

Legend:
[1] = target: T1, human TNFR1 on Kym-1, HeLa and HT1080 cells (human, UniProt P19438 30-455); assay: cell-based or functional assay
T1 sequence (looked up): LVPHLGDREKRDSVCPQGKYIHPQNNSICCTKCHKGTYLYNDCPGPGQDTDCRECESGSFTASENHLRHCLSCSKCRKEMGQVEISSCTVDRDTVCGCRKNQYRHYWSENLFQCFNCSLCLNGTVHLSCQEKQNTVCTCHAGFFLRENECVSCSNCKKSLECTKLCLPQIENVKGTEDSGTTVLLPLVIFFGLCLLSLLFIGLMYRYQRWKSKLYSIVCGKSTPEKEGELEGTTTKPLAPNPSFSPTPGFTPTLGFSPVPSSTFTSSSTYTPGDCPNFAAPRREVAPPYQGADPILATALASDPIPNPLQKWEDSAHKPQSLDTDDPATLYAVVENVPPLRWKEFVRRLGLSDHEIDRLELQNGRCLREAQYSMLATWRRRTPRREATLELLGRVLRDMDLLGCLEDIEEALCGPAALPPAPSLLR

[2] = target: T2, chimeric human/mouse TNFR1-Fc construct 4 (human CRD1 substituted by the mouse domain) (mouse; human, UniProt P25118 30-82; P19438 83-211, limits assumed); assay: ELISA on chimeric TNFR1-Fc
T2 construct: not shown: Fc of vector pSecTagL1-Fc
T2 sequence (looked up): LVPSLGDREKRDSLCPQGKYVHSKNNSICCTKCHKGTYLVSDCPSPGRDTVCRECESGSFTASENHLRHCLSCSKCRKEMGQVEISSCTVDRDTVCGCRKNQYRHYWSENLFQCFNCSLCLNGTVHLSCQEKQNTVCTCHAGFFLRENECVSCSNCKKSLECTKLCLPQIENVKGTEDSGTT
Experimental: (§1) Antibodies (0.1 nM) were analyzed by ELISA for binding to the TNFR1-Fc fusion proteins. […] Cysteine residues are marked with grey boxes and the 2 positions (P23, Q24) analyzed by site-directed mutagenesis are marked by asterisks.

[3] = target: T3, chimeric human/mouse TNFR1-Fc construct 5 (A1 domain of CRD1 of human TNFR1 exchanged with the mouse sequence) (mouse; human, UniProt P25118 30-58; P19438 59-211, limits assumed); assay: ELISA on chimeric TNFR1-Fc
T3 construct: not shown: Fc of vector pSecTagL1-Fc
T3 sequence (looked up): T2 sequence (looked up) with V40Y, S41N, S45G, R48Q, V51D
Experimental: as §1

[4] = target: T4, chimeric human/mouse TNFR1-Fc construct 3 (human CRD1 and 2 substituted by the mouse domains) (mouse; human, UniProt P25118 30-125; P19438 126-211, limits assumed); assay: ELISA on chimeric TNFR1-Fc
T4 construct: not shown: Fc of vector pSecTagL1-Fc
T4 sequence (looked up): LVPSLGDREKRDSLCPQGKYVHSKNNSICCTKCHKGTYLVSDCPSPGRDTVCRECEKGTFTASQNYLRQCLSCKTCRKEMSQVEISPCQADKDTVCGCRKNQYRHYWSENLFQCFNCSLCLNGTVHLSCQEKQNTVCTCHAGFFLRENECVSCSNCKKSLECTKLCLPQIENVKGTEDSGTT
Experimental: as §1

mouse TNFR1-Fc = target: T5, mouse TNFR1-Fc (mouse; human, UniProt P25118 30-212); assay: ELISA on coated TNFR1-Fc (100 ng/well)
T5 construct: range 30-212; also called moTNFR1-Fc; not shown: Fc of vector pSecTagL1-Fc (human IgG1 Fc is stated for the human TNFR1-Fc)
T5 sequence (looked up): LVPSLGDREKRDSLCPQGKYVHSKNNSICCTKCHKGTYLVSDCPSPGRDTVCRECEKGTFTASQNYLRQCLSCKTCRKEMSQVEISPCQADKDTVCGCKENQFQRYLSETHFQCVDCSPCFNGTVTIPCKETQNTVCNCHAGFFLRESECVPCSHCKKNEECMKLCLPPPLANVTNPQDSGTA
Experimental: (100 ng/well). Binding was detected by HRP-conjugated anti-molgG (Fc-specific) antibody or anti-human Fab antibody, respectively. Binding of an anti-human Fc antibody (anti-Fc) was included as coating control.

[5] = target: T6, human TNFR2-Fas on transfected mouse embryonic fibroblasts (human, UniProt P20333 23-257; P25445 191-335, limits assumed); assay: flow cytometry on transfected MEF cells
T6 construct: extracellular domain;domain: intracellular domain; also called MEF-TNFR2-Fas
T6 sequence (looked up): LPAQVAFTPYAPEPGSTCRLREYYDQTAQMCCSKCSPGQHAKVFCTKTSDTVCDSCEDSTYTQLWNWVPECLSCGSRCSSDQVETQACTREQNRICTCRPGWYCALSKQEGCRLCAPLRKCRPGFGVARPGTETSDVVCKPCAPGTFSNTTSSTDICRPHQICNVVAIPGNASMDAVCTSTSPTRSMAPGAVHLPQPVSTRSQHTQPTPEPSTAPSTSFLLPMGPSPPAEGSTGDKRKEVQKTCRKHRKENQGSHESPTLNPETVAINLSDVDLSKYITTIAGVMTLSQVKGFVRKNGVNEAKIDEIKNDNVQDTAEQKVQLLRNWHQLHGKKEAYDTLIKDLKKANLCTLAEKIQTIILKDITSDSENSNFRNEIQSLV
Experimental: (§2) Binding to TNFR1-Fas or TNFR2-Fas transfected MEF cells was analyzed by flow cytometry. Cells (2×105) were incubated with dilution series of antibodies for 4 h at 4° C. Cells were then washed with PBS and bound antibodies were detected with PE-labeled goat anti-mouse or anti-human antibody. Cells were analyzed by flow cytometry (Cytomics FC 500, Beckmann-Coulter, Krefeld, Germany). Data were evaluated with the program WinMDI, version 2.9, and fitted with GraphPrism software (La Jolla, USA) from 3 independent binding curves.

[6] = target: T7, chimeric human/mouse TNFR1-Fc construct 8 (mouse TNFR1 with human CRD1 and sub-domain A1 of CRD2) (human; mouse, UniProt P25118 100-212, limits assumed); assay: ELISA on chimeric TNFR1-Fc, antibody 0.1 nM
T7 construct: The label hl-2A1/m2B2-4 is tied to construct 8 by inference; also called chimeric TNFR1 hl-2A1/m2B2-4; not shown: Fc of vector pSecTagL1-Fc
T7 sequence: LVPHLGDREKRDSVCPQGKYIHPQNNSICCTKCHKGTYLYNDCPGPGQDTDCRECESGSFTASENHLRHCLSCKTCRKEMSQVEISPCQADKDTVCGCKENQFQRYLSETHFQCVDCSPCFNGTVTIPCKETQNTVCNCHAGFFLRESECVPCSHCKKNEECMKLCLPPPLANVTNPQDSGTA
Experimental: as §1

[7] = target: T8, human TNFR1-Fas on transfected mouse embryonic fibroblasts (human, UniProt P19438 30-211; P25445 191-335, limits assumed); assay: flow cytometry, titration on MEF-TNFR1-Fas cells
T8 construct: extracellular domain;domain: intracellular domain; also called MEF-TNFR1-Fas
T8 sequence (looked up): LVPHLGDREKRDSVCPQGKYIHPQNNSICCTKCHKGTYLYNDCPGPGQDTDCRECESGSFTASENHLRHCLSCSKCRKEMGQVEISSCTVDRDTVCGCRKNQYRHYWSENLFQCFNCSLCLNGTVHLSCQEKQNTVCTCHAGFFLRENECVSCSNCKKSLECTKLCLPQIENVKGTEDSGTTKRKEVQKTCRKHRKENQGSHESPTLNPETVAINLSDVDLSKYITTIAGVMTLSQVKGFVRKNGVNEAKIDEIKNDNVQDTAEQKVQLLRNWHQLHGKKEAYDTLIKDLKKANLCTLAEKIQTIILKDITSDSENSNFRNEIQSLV
Experimental: as §2

human TNFR1-Fc = target: T9, human TNFR1-Fc (human, UniProt P19438 29-211); assay: quartz crystal microbalance, TNFR1-Fc immobilized
T9 construct: range 29-211; also called huTNFR1-Fc; recombinant human TNFR1-Fc fusion protein; not shown: human IgG1 Fc region (vector pSecTagL1-Fc)
T9 sequence (looked up): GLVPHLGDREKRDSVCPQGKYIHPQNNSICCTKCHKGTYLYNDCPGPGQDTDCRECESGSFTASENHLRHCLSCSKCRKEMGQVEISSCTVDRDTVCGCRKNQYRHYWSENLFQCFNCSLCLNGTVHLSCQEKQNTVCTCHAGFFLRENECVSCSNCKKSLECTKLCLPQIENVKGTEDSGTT
Experimental: (§3) Affinities of the antibodies were determined by quartz crystal microbalance measurements (QCM; Attana A-100 C-Fast system, Stockholm, Sweden). Binding experiments were performed in PBS 0.005% Tween 20 at a flow rate of 25 to 35 μl/min and temperature was controlled at 20° C. The TNFR1-Fc fusion proteins were chemically immobilized on an Attana carboxyl sensor chip by amine coupling at a concentration of 50 μg/ml according to the manufacturer's protocol resulting in a signal increase (frequency shift) of approximately 200 Hz. Antibodies were analyzed at concentration between 62.5 and 3.9 nM (4 measurements per concentration). The chip was regenerated with 10 mM glycine-HCl, pH 3.0. Buffer injections were performed prior to each sample injection to use as a reference in Attester Evaluation. Data were collected by Attester 3.0 (Version 3.1.1.8, Attana, Stockholm, Sweden) and analyzed by ClampXP (Myszka and Morton 1998). A mass transport model (Myszka 1997) was fitted to the data.

rhesus TNFR1-Fc = target: T10, rhesus TNFR1-Fc (rhesus; human, UniProt A0A1D5QSM0 27-209); assay: quartz crystal microbalance, TNFR1-Fc immobilized
T10 construct: range 27-209; also called rheTNFR1-Fc; not shown: Fc of vector pSecTagL1-Fc (human IgG1 Fc is stated for the human TNFR1-Fc)
T10 sequence: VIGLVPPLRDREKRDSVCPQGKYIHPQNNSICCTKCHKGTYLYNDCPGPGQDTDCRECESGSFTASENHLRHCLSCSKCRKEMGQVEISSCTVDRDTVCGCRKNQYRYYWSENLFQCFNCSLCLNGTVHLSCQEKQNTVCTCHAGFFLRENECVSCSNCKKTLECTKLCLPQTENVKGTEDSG
Experimental: as §3

- IC50, inhibition of TNF-induced IL-6 release from HeLa cells [1]: 60 nM
- IC50, inhibition of TNF-induced IL-8 release from HT1080 cells [1]: 60 nM
- binding result [2]: no binding (tested: 0.1 nM)
- binding result [3]: no binding (tested: 0.1 nM)
- binding result [4]: no binding (tested: 0.1 nM)
- binding result (mouse TNFR1-Fc): no binding (tested: 5 ug/ml)
- binding result [5]: no binding
- binding result [6]: binds
- EC50 [7]: ~0.1 nM
- Kd (human TNFR1-Fc): 0.35 nM
- koff (human TNFR1-Fc): 0.00013 s⁻¹
- kon (human TNFR1-Fc): 380000 M⁻¹ s⁻¹
- Kd (rhesus TNFR1-Fc): 0.1 nM
- koff (rhesus TNFR1-Fc): 6.7e-05 s⁻¹
- kon (rhesus TNFR1-Fc): 690000 M⁻¹ s⁻¹
B1: ATROSAB (antibody, human IgG1, kappa, V domains shown)
VH: QVQLVQSGAEVKKPGSSVKVSCKASGYTFTDFYINWVRQAPGQGLEWIGEIYPYSGHAYYNEKFKARVTITADKSTSTAYMELSSLRSEDTAVYYCARWDFLDYWGQGTTVTVSS
VL: DIVMTQSPLSLPVTPGEPASISCRSSQSLLHSNGNTYLHWYLQKPGQSPQLLIYTVSNRFSGVPDRFSGSGSGTDFTLKISRVEAEDVGVYYCSQSTHVPYTFGGGTKVEIKR
notes: Humanized full-length human IgG1 made in CHO cells; Effector-deficient Fc (IgG1e3: E233P/L234V/L235A/deltaG236, A327G/A330S/P331S), allotype G1m-1,17; also called IZI-06.1 IgG; humanized H398 IgG1

- IC50, inhibition of TNF-induced IL-6 release from HeLa cells [1]: 6 nM
- IC50, inhibition of TNF-induced IL-8 release from HT1080 cells [1]: 6 nM
- EC50 [7]: ~0.1 nM
- Kd (human TNFR1-Fc): 0.23 nM
- koff (human TNFR1-Fc): 7e-05 s⁻¹
- kon (human TNFR1-Fc): 310000 M⁻¹ s⁻¹
- Kd (rhesus TNFR1-Fc): 0.49 nM
- koff (rhesus TNFR1-Fc): 0.0001 s⁻¹
- kon (rhesus TNFR1-Fc): 210000 M⁻¹ s⁻¹
B2: H398 (antibody, V domains shown)
VH: QVQLQESGAELARPGASVKLSCKASGYTFTDFYINWVKQRTGQGLEWIGEIYPYSGHAYYNEKFKAKATLTADKSSSTAFMQLNSLTSEDSAVYFCVRWDFLDYWGQGTTLTVSS
VL: DIVMTQSPLSLPVSLGDQASISCRSSQSLLHSNGNTYLHWYVQKPGQSPKLLIYTVSNRFSGVPDRFSGSGSGTDFTLKISRVEAEDLGVYFCSQSTHVPYTFGGGTKLEIK
